Measured values reported in article PMC5422525.

Assays:
[1] = target: Caulobacter crescentus ClpX (C. crescentus) (UniProt B8GX14)
[2] = target: Escherichia coli ClpX (E. coli) (UniProt P0A6H1)
UniProt P0A6H1, sequence (P0A6H1 whole entry): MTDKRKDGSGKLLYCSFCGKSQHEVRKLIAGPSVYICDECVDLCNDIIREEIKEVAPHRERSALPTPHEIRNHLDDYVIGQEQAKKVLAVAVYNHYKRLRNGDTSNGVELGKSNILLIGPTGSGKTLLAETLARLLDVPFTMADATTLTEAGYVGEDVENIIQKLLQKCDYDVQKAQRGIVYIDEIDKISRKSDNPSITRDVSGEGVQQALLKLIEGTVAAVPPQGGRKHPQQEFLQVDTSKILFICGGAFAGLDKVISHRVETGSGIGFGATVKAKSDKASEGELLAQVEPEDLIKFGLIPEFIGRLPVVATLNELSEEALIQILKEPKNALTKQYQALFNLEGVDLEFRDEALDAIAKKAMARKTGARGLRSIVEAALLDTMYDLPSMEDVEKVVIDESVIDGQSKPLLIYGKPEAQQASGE

UniProt B8GX14, sequence (B8GX14 whole entry): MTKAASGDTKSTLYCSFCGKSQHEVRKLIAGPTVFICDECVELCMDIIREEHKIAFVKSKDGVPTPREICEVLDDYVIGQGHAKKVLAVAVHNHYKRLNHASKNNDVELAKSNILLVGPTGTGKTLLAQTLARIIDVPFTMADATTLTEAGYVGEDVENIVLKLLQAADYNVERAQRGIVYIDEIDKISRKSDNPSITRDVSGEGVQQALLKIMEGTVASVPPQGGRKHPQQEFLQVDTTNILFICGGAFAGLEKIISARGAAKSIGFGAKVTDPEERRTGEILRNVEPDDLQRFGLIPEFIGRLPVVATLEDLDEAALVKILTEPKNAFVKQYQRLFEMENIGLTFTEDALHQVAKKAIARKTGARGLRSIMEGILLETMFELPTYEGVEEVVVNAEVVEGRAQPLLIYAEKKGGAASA

Row | K (activation): degradation of 1 uM GFP-ssrA by 50 nM ClpX6 with varying concentrations of ClpP14, initial rates fitted to a first-order binding equation [1] | K (activation): degradation of 1 uM GFP-ssrA by 50 nM ClpX6 with varying concentrations of ClpP14, initial rates fitted to a first-order binding equation [2] | Substance
1 | 9.1 nM | 12.1 nM | Caulobacter crescentus ClpP (from UniProt B8GX16 1-209) (enzyme)
2 |  | 24.1 nM | Escherichia coli ClpP (from UniProt P0A6G7 15-207) (enzyme)
